Experimental data published in patent US20160024194A1.

Assays:
[1] = target: human fibronectin (purified; plasma fibronectin used in the ELISA assays; purified Fibronectin protein from BIOPUR AG in Biacore) (human) (UniProt P02751); assay: SPR, Biacore 3000, antibody captured on anti-mouse antibody on CM-5 chip, fibronectin in solution, 1:1 Langmuir fit, two experiments; lower end of the range from the two independent experiments; the text does not say which experiment
[2] = target: human fibronectin (purified; plasma fibronectin used in the ELISA assays; purified Fibronectin protein from BIOPUR AG in Biacore) (human) (UniProt P02751); assay: Biacore 3000, 7A8 captured on anti-mouse antibody, fibronectin injected at 15 nM-500 nM, 1:1 Langmuir fit
[3] = target: human fibronectin (purified; plasma fibronectin used in the ELISA assays; purified Fibronectin protein from BIOPUR AG in Biacore) (human) (UniProt P02751); assay: SPR, Biacore 3000, antibody captured on anti-mouse antibody on CM-5 chip, fibronectin in solution, 1:1 Langmuir fit, two experiments; upper end of the range from the two independent experiments; the text does not say which experiment
[4] = target: human fibronectin (purified; plasma fibronectin used in the ELISA assays; purified Fibronectin protein from BIOPUR AG in Biacore) (human) (UniProt P02751); assay: Biacore 3000, 7A8 captured on anti-mouse antibody, fibronectin injected at 20 nM-100 nM, 1:1 Langmuir fit

Kd [1]: 2.8 nM
Kd [2]: 2.8 nM
Kd [3]: 7.26 nM
Kd [4]: 7.26 nM
B1: 7A8 monoclonal antibody produced by hybridoma PTA-120971 (antibody, V domains shown)
VH: QVQLRESEPGLVAPSRSLSITCTVSGFSLTSYAVSWVRQPPGKGLEWLGVIWTGGGTNYNSALKSRLSISKDNSKNQVFLKMNSLQTDDTARYYCARYSNLYYAMDYWGQGTSVTVSS
VL: DIVMTQSQKFMSTSVGERVSITCKASQNVGTNVAWYQQKAGQSLELLIYGASNRHTGVPDRFTGSGSGTDFTLTITNVQSEDMTNYFCEQYRSYPLTFGGGSKLEIK
